From the RNAGym collection of RNA variant scans (doi:10.7554/elife.90254)

B1: OR4K15 (parent)
chain: GUUAACGGUCAUAGGCCAUGGAAACUAGGAGCACCAUUUCGCUGCCAGUGAAGAAAUGAACAAAGAAAAUCUGGGCCAGGCAGGCAUCAAAAGAAAUAGUCUUGCGCUCAACCAGAAAGUCUGUAAUCAUUUUAAGGGUA

Variants of: B1
Assay: self-cleavage, relative activity (ratio to wild type); higher = more cleavage; in vitro, sequencing; the parent is a self-cleaving ribozyme

Variant	self-cleavage
A47G U120A	1.21
A47G A59G	0.86
A47G G74A	0.21
A47G A114G	0.24
C46U A116G	1.37
A47G A52C	0.5
A47G A52G	0.87
A47G A52U	1.73
C46U U130C	1.4
C46U A117G	2.01
A47C A92U	0.74
A47G U108C	0.01
A47U A126C	0.72
C46U A59G	1.81
A47G A68G	1.23
A47G A68U	1.17
A47U G99A	0.23
A47G U100G	2.14
A47G C105A	0.07
A47G U102A	0.78
A47G U102C	1.25
A47G U102G	0.41
A47U U131C	0.54
A47C G74U	0.15

Variant	self-cleavage
A47C G74A	0.17
C45U U108A	0.01
A47C A129G	0.74
A47G A64G	1.17
A47G U131C	0.71
A47G U131A	0.62
A47U U97A	1.74
A47G G58C	0.97
A47G G58A	0.52
C46A A60U	1.27
A47U U132A	0.51
A47U U132C	1.02
A47U A68G	0.48
A47G U87C	0.42
A47U U133C	0.97
A47G A67G	1.12
C46A U97A	1.43
C46U A62U	1.83
C45U U103C	0.54
A47G A92G	1.02
C46U U127C	0.86
A47U A78G	0.17
A47U A78C	0.08
C46U A129G	1.52

Variant	self-cleavage
C46A A52G	1.25
C46A A91G	0.95
C46U U87C	1.68
A47G C112U	0.01
A47G A54G	1.22
A47G A54U	0.97
G48A A59G	1.25
A47U A117C	0.24
A47U U108C	0.01
C46U U122A	1.22
A47U A90G	0.72
A47U A114U	0.06
A47G A91G	0.69
A47G A78U	0.14
A47G A78G	0.26
A47C U70C	0.23
A47G A125U	1.01
A47G A125G	0.28
C46U U139A	1.41
C46U U139C	2.16
A47G A90U	0.8
G48A	1.44
A47G A94G	0.82
A47U U139G	1.4

Variant	self-cleavage
A47U A118G	0.76
A47U U120A	1.19
C46U A67U	2.2
C46U C85U	1.36
A47G A135G	1.27
C46U A86G	1.41
A47G A63U	1.03
A47C A116G	1.3
A47U U103G	0.03
A47G A86U	2.98
A47G U139A	1.4
A47G U139C	1.45
A47U A82G	0.21
A47G U127C	0.59
A47G U127A	1.33
C46A A118U	0.26
A47U A116C	0.05
A47U U100C	2.2
A47G A134G	0.84
A47U A135C	1.32
A47U A54G	0.67
A47U U102A	0.45
A47U U102G	0.28
A47G U132C	0.47

Variant	self-cleavage
C46U G138A	1.91
A47G A62G	0.63
A47U A94G	1.22
A47U A95G	1.25
A47C A68G	0.55
A47U A55G	0.6
A47G A111G	0.02
A47G C85U	0.65
C46U A51U	0.64
A47U U70C	0.13
A47U U70G	1.16
A47U A69G	0.73
A47U	0.72
A47C	0.88
A47G	0.96
A47G A110U	1.15
A47U A62U	1.36
A47U A59U	0.57
A47U G106U	0.01
A47U G106A	0.01
C46U A89G	2.15
A47C U87C	1.76
C46U A114G	0.49
A47U A66U	0.99

Variant	self-cleavage
A47G A82G	0.51
A47G A82U	0.07
A47U U72A	0.13
C45U U122G	2.74
A47U A67G	1.23
C46U A69U	1.84
A47G A96G	1.18
A47G G115U	0.09
A47G A129G	0.64
A47G U72C	0.35
A47G U72A	0.09
A47G A51G	0.9
C46U U72C	0.21
A47U A60G	0.42
A47G A98U	0.85
A47G A98G	0.3
A47U U87C	1.34
A47U U49C	0.36
A47U U49A	0.97
A47C U108C	0.02
A47G U97C	1.08
A47G U97A	1.21
A47U U122C	0.67
A47G A66U	1.11

Variant	self-cleavage
A47G A66G	0.23
A47G A118G	0.41
A47C U49C	1.24
A47C U49G	1.78
A47G A60G	0.74
A47C C105U	0.32
A47C U120C	1
A47C U120A	2.24
C46U	1.54
C46A	1.44
C46G	1.46
G48A A51G	2.22
C46U A56G	1.12
A47G U130C	0.33
A47U A98U	1.79
A47U U124C	0.5
A47G A116C	0.03
A47G A116G	0.35
A47G A89U	0.42
C45U U120C	1.06
A47C A67G	0.84
A47G G138A	1.31
A47U A111G	0.04
